Measured values: patent US20230272064A1

How the values were obtained:
[1] = target: recombinant human TIGIT extracellular membrane protein with a C-terminal histidine tag (human) (UniProt Q495A1); assay: competitive ELISA, TIGIT-His coated, competitor fixed biotin-CD155-Fc (signal), mAb at 5 µg/mL
[2] = target: recombinant human TIGIT extracellular membrane protein with a C-terminal histidine tag (human) (UniProt Q495A1); assay: competitive ELISA, TIGIT-His coated, competitor fixed biotin-CD155-Fc (signal), mAb at 10 µg/mL
[3] = target: recombinant human TIGIT extracellular membrane protein with a C-terminal histidine tag (human) (UniProt Q495A1); assay: competitive ELISA, TIGIT-His coated, competitor fixed biotin-CD155-Fc (signal), mAb at 2.5 µg/mL
[4] = target: recombinant human TIGIT extracellular membrane protein with a C-terminal histidine tag (human) (UniProt Q495A1); assay: competitive ELISA, TIGIT-His coated, competitor fixed biotin-CD155-Fc (signal), mAb at 1.25 µg/mL
[5] = target: recombinant human TIGIT extracellular membrane protein with a C-terminal histidine tag (human) (UniProt Q495A1); assay: competitive ELISA, TIGIT-His coated, competitor fixed biotin-CD155-Fc (signal), mAb at 0.005 µg/mL
[6] = target: recombinant human TIGIT extracellular membrane protein with a C-terminal histidine tag (human) (UniProt Q495A1); assay: competitive ELISA, TIGIT-His coated, competitor fixed biotin-CD155-Fc (signal), mAb at 0.010 µg/mL
[7] = target: recombinant human TIGIT extracellular membrane protein with a C-terminal histidine tag (human) (UniProt Q495A1); assay: competitive ELISA, TIGIT-His coated, competitor fixed biotin-CD155-Fc (signal), mAb at 0.019 µg/mL
[8] = target: recombinant human TIGIT extracellular membrane protein with a C-terminal histidine tag (human) (UniProt Q495A1); assay: competitive ELISA, TIGIT-His coated, competitor fixed biotin-CD155-Fc (signal), mAb at 0.039 µg/mL
[9] = target: recombinant human TIGIT extracellular membrane protein with a C-terminal histidine tag (human) (UniProt Q495A1); assay: competitive ELISA, TIGIT-His coated, competitor fixed biotin-CD155-Fc (signal), mAb at 0.078 µg/mL
[10] = target: recombinant human TIGIT extracellular membrane protein with a C-terminal histidine tag (human) (UniProt Q495A1); assay: competitive ELISA, TIGIT-His coated, competitor fixed biotin-CD155-Fc (signal), mAb at 0.156 µg/mL
[11] = target: recombinant human TIGIT extracellular membrane protein with a C-terminal histidine tag (human) (UniProt Q495A1); assay: competitive ELISA, TIGIT-His coated, competitor fixed biotin-CD155-Fc (signal), mAb at 0.312 µg/mL
[12] = target: recombinant human TIGIT extracellular membrane protein with a C-terminal histidine tag (human) (UniProt Q495A1); assay: competitive ELISA, TIGIT-His coated, competitor fixed biotin-CD155-Fc (signal), mAb at 0.625 µg/mL

Sequence of recombinant human TIGIT extracellular membrane protein with a C-terminal histidine tag (human) (Q495A1 22-141): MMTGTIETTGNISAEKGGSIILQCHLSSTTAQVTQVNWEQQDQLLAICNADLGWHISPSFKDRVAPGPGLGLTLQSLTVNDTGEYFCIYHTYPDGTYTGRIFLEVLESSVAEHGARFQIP

anti-VEGF monoclonal antibody hPV19
OD at 492 nm [1]: 1.1 OD | OD at 492 nm [2]: 1.11 OD | OD at 492 nm [3]: 1.07 OD | OD at 492 nm [4]: 1.08 OD | OD at 492 nm [5]: 1.11 OD | OD at 492 nm [6]: 1.1 OD | OD at 492 nm [7]: 1.08 OD | OD at 492 nm [8]: 1.05 OD | OD at 492 nm [9]: 1.05 OD | OD at 492 nm [10]: 1.05 OD | OD at 492 nm [11]: 1.03 OD | OD at 492 nm [12]: 1.06 OD
